Data taken from PMC12923268, “JAZ2/JAZ4-MYC2.1 module mediates MeJA-induced alleviation of chilling injury in peach fruit (Prunus persica)”.

How the values were obtained:
PpMYC2.1 [1] = target: T1, PpMYC2.1 (Prunus persica, UniProt A0A251P353 1-687); assay: EMSA; Chemiluminescent EMSA Kit (Beyotime); buffer, salt, pH and temperature not stated; settings: protein: recombinant; tags: His, SUMO (pET-SUMO); chain copies: 2; label: 3' biotin; blunt
PpMYC2.1 [2] = target: T1, PpMYC2.1; assay: competition; mutant competitor vs N3; failed to compete effectively; Chemiluminescent EMSA Kit (Beyotime); buffer, salt, pH and temperature not stated; settings: protein: recombinant; tags: His, SUMO (pET-SUMO); chain copies: 2; blunt
PpMYC2.1 [3] = target: T1, PpMYC2.1; assay: competition; mutant competitor vs N5; failed to compete effectively; Chemiluminescent EMSA Kit (Beyotime); buffer, salt, pH and temperature not stated; settings: protein: recombinant; tags: His, SUMO (pET-SUMO); chain copies: 2; blunt
PpMYC2.1 [4] = target: T1, PpMYC2.1; assay: competition; mutant competitor vs N1; failed to compete effectively; Chemiluminescent EMSA Kit (Beyotime); buffer, salt, pH and temperature not stated; settings: protein: recombinant; tags: His, SUMO (pET-SUMO); chain copies: 2; blunt

T1 sequence (A0A251P353 entry or part of it): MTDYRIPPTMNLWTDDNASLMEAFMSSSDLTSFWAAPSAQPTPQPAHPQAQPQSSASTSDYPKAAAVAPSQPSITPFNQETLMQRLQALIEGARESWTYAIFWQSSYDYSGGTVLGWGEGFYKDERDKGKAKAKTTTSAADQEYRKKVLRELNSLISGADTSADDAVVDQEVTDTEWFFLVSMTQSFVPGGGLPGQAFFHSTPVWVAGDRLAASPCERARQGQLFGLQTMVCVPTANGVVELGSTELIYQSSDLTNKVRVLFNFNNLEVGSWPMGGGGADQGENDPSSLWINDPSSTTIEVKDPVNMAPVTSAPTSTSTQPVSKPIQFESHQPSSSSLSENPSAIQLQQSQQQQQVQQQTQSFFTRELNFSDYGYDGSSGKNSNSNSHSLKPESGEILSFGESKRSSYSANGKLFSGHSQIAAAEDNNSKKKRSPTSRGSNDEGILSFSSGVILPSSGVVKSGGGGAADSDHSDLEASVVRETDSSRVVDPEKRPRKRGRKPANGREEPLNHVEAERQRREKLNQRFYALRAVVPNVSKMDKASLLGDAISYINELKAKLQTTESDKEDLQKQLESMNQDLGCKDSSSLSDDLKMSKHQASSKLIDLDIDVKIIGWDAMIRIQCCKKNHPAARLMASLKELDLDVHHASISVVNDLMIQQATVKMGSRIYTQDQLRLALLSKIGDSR

B1: PpPG2 probe (dsDNA)
DNA 1: GACAACAATTCCACATGTCCTATGTTTATTG
DNA 2: CAATAAACATAGGACATGTGGAATTGTTGTC
binding result (PpMYC2.1 [1]): binds

B2: PpHB.G7 mut (dsDNA)
DNA 1: GTGGCGTGAGAAAAAAAATGGCCGTTACGC
DNA 2: GCGTAACGGCCATTTTTTTTCTCACGCCAC
binding result (PpMYC2.1 [2]): no binding

B3: PpPAL1 probe (dsDNA)
DNA 1: GGCAACCACATGGATGAATTGTTAT
DNA 2: ATAACAATTCATCCATGTGGTTGCC
binding result (PpMYC2.1 [1]): binds

B4: Pp4CL probe (dsDNA)
DNA 1: GCATGGGACACACGTGTTCAAATACTTGTATGA
DNA 2: TCATACAAGTATTTGAACACGTGTGTCCCATGC
binding result (PpMYC2.1 [1]): binds

B5: PpHB.G7 probe (dsDNA)
DNA 1: GTGGCGTGAGAACACGTGTGGCCGTTACGC
DNA 2: GCGTAACGGCCACACGTGTTCTCACGCCAC
binding result (PpMYC2.1 [1]): binds

B6: PpERF61 probe (dsDNA)
DNA 1: ACAAGTTGAGCATGTGTACCCAATTGCT
DNA 2: AGCAATTGGGTACACATGCTCAACTTGT
binding result (PpMYC2.1 [1]): binds

B7: PpCHS probe (dsDNA)
DNA 1: AGAAAACCACGTGGGACAAAACCCTAGA
DNA 2: TCTAGGGTTTTGTCCCACGTGGTTTTCT
binding result (PpMYC2.1 [1]): binds

B8: PpXTH2 probe (dsDNA)
DNA 1: TGAGGCGCACATGGAACAAAATTAG
DNA 2: CTAATTTTGTTCCATGTGCGCCTCA
binding result (PpMYC2.1 [1]): binds

B9: PpIAA1 mut (dsDNA)
DNA 1: AGTAGTTGGAAAAAATTATAAATAATA
DNA 2: TATTATTTATAATTTTTTCCAACTACT
binding result (PpMYC2.1 [3]): no binding

B10: PpPL1 probe (dsDNA)
DNA 1: CACACACTCACATGTTGCTAAATT
DNA 2: AATTTAGCAACATGTGAGTGTGTG
binding result (PpMYC2.1 [1]): binds

B11: PpCHI3 probe (PpCHI) (dsDNA)
DNA 1: CATCTACCCACGTGTTCAACAATTCAA
DNA 2: TTGAATTGTTGAACACGTGGGTAGATG
binding result (PpMYC2.1 [1]): binds

B12: PpERF61 mut (dsDNA)
DNA 1: ACAAGTTGAGAAAAAATACCCAATTGCT
DNA 2: AGCAATTGGGTATTTTTTCTCAACTTGT
binding result (PpMYC2.1 [4]): no binding

B13: PpIAA1 probe (dsDNA)
DNA 1: AGTAGTTGGCACGTGTTATAAATAATA
DNA 2: TATTATTTATAACACGTGCCAACTACT
binding result (PpMYC2.1 [1]): binds
